According to US8933202B2, “AXL antibodies” (U3 Pharma GmbH, priority 2007, dated 2015):

What was measured:
Type in all cases: cell-based
Akt-Kinase = Akt-Kinase (Ser473) phosphorylation ELISA; settings: 400 ng/ml Gas6
Description: Furthermore, ELISA experiments were performed in order to investigate whether the rat anti-AXL antibodies of the invention are able to block ligand Gas6-mediated activation of Akt-Kinase. Gas6-mediated Akt-Kinase activation was detected by increased protein (Ser473) phosphorylation. In brief, on day 1. 2×10^4 cells per well were seeded in flat-bottom 96 well plates. The next day, normal growth medium was replaced by serum-reduced (DMEM, 0.5% FCS for NIH3T3-AXL cl.7 fibroblasts) or serum-free (for cancer cell lines) medium to starve cells for 36 h. […] Medium was flicked out and cells were fixed with 4% formaldehyde in PBS (pH 7.5) for 30 min at room temperature. Formaldehyde solution was removed and cells were washed twice with wash buffer (PBS, 0.1% Tween 20). […] Tetramethylbenzidine (TMB, Calbiochem) was added and monitored at 620 nm.
In order to investigate whether the rat anti-AXL antibodies of the invention and the corresponding chimeric anti-AXL antibodies of the invention were able to block ligand Gas6-mediated activation of the Akt-Kinase in NIH3T3-AXL cl.7 fibroblasts to similar extent, ELISA experiments were performed. Antibody-mediated Akt-Kinase inhibition was detected by decreased protein (Ser473) phosphorylation. […] Tetramethylbenzidine (TMB, Calbiochem) was added and monitored at 620 nm.

[1] = test system: NIH3T3-AXL cl.7 fibroblasts; assay: AlamarBlue Gas6-induced proliferation assay; settings: 20 μg/ml antibody, with or without 400 ng/ml Gas6, 96 h
Description: In vitro experiments were conducted in order to determine the ability of the rat anti-AXL antibodies of the invention to inhibit Gas6-induced cell proliferation. For this purpose, 2,500 NIH3T3-AXL cl.7 fibroblasts per well were seeded in FCS-containing medium on 96 well plates over night. […] Cells were treated with or without 400 ng/ml mouse Gas6 (R&D Systems) by adding ligand directly to the antibody solution, and were then left to grow for 96 h. AlamarBlue™ (BIOSOURCE #DAL1100) was added and incubated at 37° C. in the dark. Absorbance was measured at 590 nm every 30 min. The data were taken 4 h after addition of AlamarBlue™.

[2] = test system: serum-starved NIH3T3-AXL cl.7 fibroblasts; assay: Caspase-3/7 assay, Gas6-mediated anti-apoptosis; settings: 10 μg/ml antibody, with or without 400 ng/ml Gas6, compared to isotypic control antibody
Source text: Induction of apoptosis and activation of caspases can result from a variety of stimuli including growth factor withdrawal, exposure to chemotherapeutic agents or radiation, or initiation of the Fas/Apo-1 receptor-mediated cell death process. […] In the present example we examined whether rat anti-AXL antibodies of the invention interfere with Gas6-mediated anti-apoptosis of serum-starved NIH3T3-AXL cl.7 fibroblasts, and thus induce apoptosis. Apoptosis rates were thereby determined by measurement of the cellular caspase-3/7 activity. For this purpose, NIH3T3-AXL cl.7 cells were seeded at a density of 1.5×10^3 cells per well in black clear-bottom 96 well plates (100 μl/well). The day after, normal growth medium was replaced by serum-reduced medium (DMEM, 0.5% FCS) to starve cells over night for 24 h. […] The cells were washed with PBS, covered with 60 μl of DMEM, 0% FCS, 0.01% BSA, and 10 μl of the respective antibody solution were added. After 1 h incubation at 37° C., 10 μl of DMEM, 0% FCS, 0.01% BSA with or without 3.2 μg/ml mouse Gas6 (R&D Systems) were added (the final concentrations of antibody and Gas6 were 10 μg/ml and 400 ng/ml, respectively), and cells were incubated at 37° C. for another 5 h. […] Using a Victor plate reader (Perkin Elmer), the fluorescence of each well was measured at an excitation wavelength of 485 nm and an emission wavelength of 530 nm.

B1: 11B7: antagonistic rat anti-AXL monoclonal antibody, rat IgG1 (antibody, V domains shown)
VL: DIQMTQAPSSLPASLGDRVTITCRASQDIGNYLRWFQQKPGKSPRLMISGATNLAAGVPSRFSGSRSGSDYSLTISSLESEDMADYYCLQSKESPWTFGGGTKLELK
VH: EVQLQESGPGLVKPSQSLSLTCSVTGYSITSNYWGWIRKFPGDKMEWMGYITYSGSTSYNPSLKSRISITRDTSKNQFFLQLNSVTSEDTATYYCAITTFYYWGQGVMVTVSS
ligand-mediated Akt-Kinase activation, rat versus chimeric antibody (Akt-Kinase; 50 ng/ml to 1 μg/ml (11B7, ch11B7) or to 10 μg/ml (11D5, ch11D5), NIH3T3-AXL cl.7): able to inhibit ligand-mediated Akt-Kinase activation to similar extent | ligand-mediated Akt-Kinase activation (phosphorylation) (Akt-Kinase; 10 μg/ml antibody, NIH3T3-AXL cl.7 fibroblasts and CaLa-1 lung cancer cells): able to block or reduce ligand-mediated Akt-Kinase activation | cell proliferation [1]: blocked Gas6-induced proliferation | anti-apoptosis (caspase-3/7 activity) [2]: reduced Gas6-mediated anti-apoptosis
